Key:
[1] = system: RAJI cells; test: JNG assay, co-culture with RAJI cells; assay type: cell-based; conditions: JNG cells expressing construct, co-culture with Raji
In short: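 Jurkat-NFAT-GFP (JNG) cells stably expressing SAR constructs via lentiviral transduction and puromycin/blasticidin selection were cocultured with target cells at E:T ~1:2 for ~4–18 h. NFAT-driven GFP was measured by FACS versus parental JNG cells; scores +/- to 5+ denote ~5–50% GFP-positive cells.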

[2] = system: LoVo; test: JNG NFAT-GFP assay, co-culture with LoVo cells; assay type: cell-based
[3] = system: Nalm6 cells; test: JNG assay, co-culture with Nalm6 cells; assay type: cell-based; conditions: co-culture with Nalm6
In short: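 GFP expression induced through the NFAT pathway was monitored by FACS once SAR-bearing Jurkat reporters had been cultured with target cells at an approximate 1:2 ratio for 4 to 18 hours; parental reporter cells served as the baseline.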

[4] = system: JNG cells expressing the constructs

| Molecule | NFAT-GFP ASSAY: Raji [1] | NFAT-GFP ASSAY: LoVo [2] | NFAT-GFP ASSAY: Nalm6 [3] | cytotoxicity when exposed to antibody [4] |
| --- | --- | --- | --- | --- |
| 22007 (protein) MALPVTALLLPLALLLHAARPQLQLQESGPGLVKPSETLSLTCTVSGDSISSGDYYWGWIRQPPGKGLEWIGHIYYSGVTYYNPSLKSRVTISVDTSRNQFSLKLSSVTAADTAVYYCTREDSSNWRSRGQGTLVTVSSLEDLKNVFPPEVAVFEPSEAEISHTQKATLVCLATGFYPDHVELSWWVNGKEVHSGVCTDPQPLKEQPALNDSRYCLSSRLRVSATFWQNPRNHFRCQVQFYGLSENDEWTQDRAKPVTQIVSAEAWGRADCGFTSESYQQGVLSATILYEILLGKATLYAVLVSALVLMAMVKRKDSRGRAKRSGSGATNFSLLKQAGDVEENPGPTSMDWIWRILFLVGAATGAHSFEVQLVESGGGLVQPGGSLRLSCAASGFNIKDTCIGWVRRAPGKEEELVADICPYKGSTRYADSVKGRFTISADTSKNTAYLQMNSLRAEDTAVYYCAIVSARDGYYNYWGQGTTVTVSSTRIQNPDPAVYQLRDSKSSDKSVCLFTDFDSQTNVSQSKDSDVYITDKCVLDMRSMDFKSNSAVAWSNKSDFACANAFNNSIIPEDTFFPSPESSCDVKLVEKSFETDTNLNFQNLSVIGFRILLLKVAGFNLLMTLRLWSSRAKRSGSGVKQTLNFDLLKLAGDVESNPGPSRGHMTEYKPTVRLATRDDVPRAVRTLAAAFADYPATRHTVDPDRHIERVTELQELFLTRVGLDIGKVWVADDGAAVAVWTTPESVEAGAVFAEIGPRMAELSGSRLAAQQQMEGLLAPHRPKEPAWFLATVGVSPDHQGKGLGSAVVLPGVEAAERAGVPAFLETSAPRNLPFYERLGFTVTADVEVPEGPRTWCMTRKPGA | +/- (refer to approximately 5%, 10%, 20%, 30%, 40% and 50% GFP positive cells) | +/- (refer to approximately 5%, 10%, 20%, 30%, 40% and 50% GFP positive cells) |  |  |
| 22093 (protein) MALPVTALLLPLALLLHAARPEVQLVESGGGLVQPGGSLRLSCAASGFNIKDTCIGWVRRAPGKEEELVAKICKYSGHTRYADSVKGRFTISADTSKNTAYLQMNSLRAEDTAVYYCAAVSVRDGHYNYWGQGTTVTVSSLEGKPIPNPLLGLDSTGSGEDLKNVFPPEVAVFEPSKAEIAHTQKATLVCLATGFYPDHVELSWWVNGKEVHSGVCTDPQPLKEQPALNDSRYCLSSRLRVSATFWQNPRNHFRCQVQFYGLSENDEWTQDRAKPVTQIVSAEAWGRADCGITSASYHQGVLSATILYEILLGKATLYAVLVSALVLMAMVKRKDSRGRAKRSGSGATNFSLLKQAGDVEENPGPTSTMALPVTALLLPLALLLHAARPDIQMTQSPSSLSASVGDRVTITCKASDHINNWLAWYQQKPGQAPKLLIYGATTLETGVPSRFSGSGSGTDYTLTISSLQPEDFATYYCQQSWNTPWTFGQGTKLEIKRGGGGSGGGGSGGGGSQVQLQQPGAELVKPGASVKMSCKASGYAFSSYWINWMKQKPGQGLEWIGQIYPGDGDTNYNGKFKGRATLTADTSSSTAYMQLSSLTSEDSAVYFCARSITTVVGCAMDYWGQGTSVTVSSTREQKLISEEDGSGIQNPDPAVYQLRDSKSSDKSVCLFTDFDSQTNVSQSKDSDVYITDKCVLDMRSMDFKSNSAVAWSNKSDFACANAFNNSIIPEDTFFPSSDVPCDVKLVEKSFETDTNLNFQNLSVIGFRILLLKVAGFNLLMTLRLWSSRAKRSGSGVKQTLNFDLLKLAGDVESNPGPSRGHMTEYKPTVRLATRDDVPRAVRTLAAAFADYPATRHTVDPDRHIERVTELQELFLTRVGLDIGKVWVADDGAAVAVWTTPESVEAGAVFAEIGPRMAELSGSRLAAQQQMEGLLAPHRPKEPAWFLATVGVSPDHQGKGLGSAVVLPGVEAAERAGVPAFLETSAPRNLPFYERLGFTVTADVEVPEGPRTWCMTRKPGA | 2+ (refer to approximately 5%, 10%, 20%, 30%, 40% and 50% GFP positive cells) | +/- (refer to approximately 5%, 10%, 20%, 30%, 40% and 50% GFP positive cells) | + (refer to approximately 5%, 10%, 20%, 30%, 40% and 50% GFP positive cells) |  |
| 22005 (protein) MALPVTALLLPLALLLHAARPLEGKPIPNPLLGLDSTGSGEDLKNVFPPEVAVFEPSKAEIAHTQKATLVCLATGFYPDHVELSWWVNGKEVHSGVCTDPQPLKEQPALNDSRYCLSSRLRVSATFWQNPRNHFRCQVQFYGLSENDEWTQDRAKPVTQIVSAEAWGRADCGITSASYHQGVLSATILYEILLGKATLYAVLVSALVLMAMVKRKDSRGRAKRSGSGATNFSLLKQAGDVEENPGPTSTMALPVTALLLPLALLLHAARPEVQLVESGGGLVQPGGSLRLSCAASGFNIKDTCIGWVRRAPGKEEELVAKICKYSGHTRYADSVKGRFTISADTSKNTAYLQMNSLRAEDTAVYYCAAVSVRDGHYNYWGQGTTVTVSSTREQKLISEEDGSGIQNPDPAVYQLRDSKSSDKSVCLFTDFDSQTNVSQSKDSDVYITDKCVLDMRSMDFKSNSAVAWSNKSDFACANAFNNSIIPEDTFFPSSDVPCDVKLVEKSFETDTNLNFQNLSVIGFRILLLKVAGFNLLMTLRLWSSRAKRSGSGVKQTLNFDLLKLAGDVESNPGPSRGHMTEYKPTVRLATRDDVPRAVRTLAAAFADYPATRHTVDPDRHIERVTELQELFLTRVGLDIGKVWVADDGAAVAVWTTPESVEAGAVFAEIGPRMAELSGSRLAAQQQMEGLLAPHRPKEPAWFLATVGVSPDHQGKGLGSAVVLPGVEAAERAGVPAFLETSAPRNLPFYERLGFTVTADVEVPEGPRTWCMTRKPGA |  | +/- (refer to approximately 5%, 10%, 20%, 30%, 40% and 50% GFP positive cells) |  |  |
| SEQ ID NO: 22247: Herceptin mimotag tagged SAR (protein, Herceptin mimotag) MALPVTALLLPLALLLHAARPACPQLGPYELWELSHGTGAVVRGAEFDIQMTQSPSSLSASVGDRVTITCKASDHINNWLAWYQQKPGQAPKLLIYGATTLETGVPSRFSGSGSGTDYTLTISSLQPEDFATYYCQQSWNTPWTFGQGTKLEIKRLEDLKNVFPPEVAVFEPSKAEIAHTQKATLVCLATGFYPDHVELSWWVNGKEVHSGVCTDPQPLKEQPALNDSRYCLSSRLRVSATFWQNPRNHFRCQVQFYGLSENDEWTQDRAKPVTQIVSAEAWGRADCGITSASYHQGVLSATILYEILLGKATLYAVLVSALVLMAMVKRKDSRGRAKRSGSGATNFSLLKQAGDVEENPGPTSATMDWIWRILFLVGAATGAHSGPQVQLQESGGGLAQAGGSLRLSCAASGRTFSMGWFRQAPGKEREFVAAITYSGGSPYYASSVRGRFTISRDNAKNTVYLQMNSLKPEDTAVYYCAANPTYGSDWNAENWGQGTQVTVSSGSGGGGSGGGGSGGGGSFEQVQLQQPGAELVKPGASVKMSCKASGYAFSSYWINWMKQKPGQGLEWIGQIYPGDGDTNYNGKFKGRATLTADTSSSTAYMQLSSLTSEDSAVYFCARSITTVVGCAMDYWGQGTSVTVSSTRIQNPDPAVYQLRDSKSSDKSVCLFTDFDSQTNVSQSKDSDVYITDKCVLDMRSMDFKSNSAVAWSNKSDFACANAFNNSIIPEDTFFPSSDVPCDVKLVEKSFETDTNLNFQNLSVIGFRILLLKVAGFNLLMTLRLWSSRAKRSGSGVKQTLNFDLLKLAGDVESNPGPSRGHMTEYKPTVRLATRDDVPRAVRTLAAAFADYPATRHTVDPDRHIERVTELQELFLTRVGLDIGKVWVADDGAAVAVWTTPESVEAGAVFAEIGPRMAELSGSRLAAQQQMEGLLAPHRPKEPAWFLATVGVSPDHQGKGLGSAVVLPGVEAAERAGVPAFLETSAPRNLPFYERLGFTVTADVEVPEGPRTWCMTRKPGA |  |  |  | showed cytotoxicity |
